{"source": "patent US20260241018A1", "about": "(BIOCYTOGEN PHARMACEUTICALS BEIJING, published 2026)", "binders": {"B1": {"name": "32G1 (antibody, V domains shown)", "VH": "QVQLVQSGGGLVKPGGSLRLSCVASGFTFSDYYMNWVRQAPGKGLEWISYVGTESIYTYYADTVKGRFTISRDNAKNSLYLQMNSLRAEDTALYYCARARDYNLYGMDVWGQGTTVTVSS", "VL": "not shown", "notes": "also called anti-5T4 antibody 32G1"}}, "key": {"[1]": {"target": "T1, monkey (Macaca fascicularis) 5T4 expressed on CHO-S cells (CHO-fas5T4 cells) (monkey (Macaca fascicularis), UniProt Q4R8Y9 35-355)", "T1 construct": "also called monkey 5T4", "T1 sequence": "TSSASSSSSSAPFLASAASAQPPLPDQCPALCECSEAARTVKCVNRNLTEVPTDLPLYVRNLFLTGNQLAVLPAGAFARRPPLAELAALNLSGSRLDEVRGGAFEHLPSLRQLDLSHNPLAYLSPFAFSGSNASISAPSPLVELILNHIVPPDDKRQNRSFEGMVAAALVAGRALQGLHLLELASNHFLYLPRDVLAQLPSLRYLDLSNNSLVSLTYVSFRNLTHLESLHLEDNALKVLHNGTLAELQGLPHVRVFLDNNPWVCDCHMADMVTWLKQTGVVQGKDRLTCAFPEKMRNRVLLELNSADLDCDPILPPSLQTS", "assay": "flow cytometry, CHO-fas5T4 cells", "procedure": "CHO-h5T4 cells, CHO-m5T4 cells, CHO-fas5T4 cells or CHO-d5T4 cells were transferred to a 96-well plate at a density of 2×10⁵ cells/well respectively. The anti-5T4 antibodies were added to the 96-well plate, and incubated at 4° C. for 30 min. Then, the cells were incubated with the secondary antibody anti-hlgG-Fc-Alex Flour 647 (RL1-H) (Jackson ImmunoResearch Laboratories, Inc., Cat #: 109-606-170) at 4° C. in the dark for 15 minutes before flow cytometry analysis."}, "[2]": {"target": "T2, h5T4-His protein (human, UniProt Q13641 32-355, limits assumed)", "T2 construct": "also called His-tagged human 5T4 protein; not shown: His tag", "T2 sequence (looked up)": "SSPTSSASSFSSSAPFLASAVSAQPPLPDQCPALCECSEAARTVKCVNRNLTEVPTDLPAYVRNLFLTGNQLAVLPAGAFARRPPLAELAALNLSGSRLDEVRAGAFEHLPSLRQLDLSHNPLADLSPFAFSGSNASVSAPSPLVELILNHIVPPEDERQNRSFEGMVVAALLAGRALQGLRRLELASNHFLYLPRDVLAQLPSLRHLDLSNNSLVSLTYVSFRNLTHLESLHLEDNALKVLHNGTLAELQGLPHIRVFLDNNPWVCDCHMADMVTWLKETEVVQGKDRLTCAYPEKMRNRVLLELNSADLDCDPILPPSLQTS", "assay": "epitope binding assay, h5T4-His captured; binder = analyte 2; competitor (analyte 1): 31G4", "procedure": "(§1) Epitope binding assays were performed using ForteBio Octet system to determine whether two anti-5T4 antibodies target the same or overlapping epitopes. 1×HBS-EP+buffer (10 mM 4-(2-hydroxyethyl)-1-piperazineethanesulfonic acid (HEPES), 150 mM NaCl, 3 mM ethylenediaminetetraacetic acid (EDTA) and 0.05% P20, pH7.4) diluted from HBS-EP+buffer (10×) was used as the running buffer throughout the experiment. About 50 RU of h5T4-His protein was captured at a flow rate of 10 μL/min, and 200 nM of the tested antibody was injected at a flow rate of 30 μL/min to bind the ligand. Another comparison antibody was injected under the same conditions to determine whether the binding of different antibodies interfered with each other. The binding time was 180 s for each antibody.\n(§2) The binding value of each antibody was obtained using Data Analysis HT 12.0. To quantify the interference of one antibody binding to another, a binding ratio was calculated to compare each pair of antibodies. The binding ratio is defined as the binding value of the second antibody (analyte 2), divided by the binding value of the first antibody (analyte 1). […] In general, antibody pairs that interfere with each other have the same or overlapping epitopes."}, "[3]": {"target": "T2, h5T4-His protein", "assay": "epitope binding assay, h5T4-His captured; binder = analyte 2; competitor (analyte 1): 32E3", "procedure": "as §1, §2"}, "[4]": {"target": "T2, h5T4-His protein", "assay": "epitope binding assay, h5T4-His captured; binder = analyte 2; competitor (analyte 1): 32G1", "procedure": "as §1, §2"}, "[5]": {"target": "T2, h5T4-His protein", "assay": "epitope binding assay, h5T4-His captured; binder = analyte 2; competitor (analyte 1): 35B12", "procedure": "as §1, §2"}, "[6]": {"target": "T3, 5T4 on NCI-H226 cells, NCI-H2030 cells and HCC827 cells (UniProt Q13641 32-420, limits assumed)", "T3 construct": "whole, on cells", "T3 sequence (looked up)": "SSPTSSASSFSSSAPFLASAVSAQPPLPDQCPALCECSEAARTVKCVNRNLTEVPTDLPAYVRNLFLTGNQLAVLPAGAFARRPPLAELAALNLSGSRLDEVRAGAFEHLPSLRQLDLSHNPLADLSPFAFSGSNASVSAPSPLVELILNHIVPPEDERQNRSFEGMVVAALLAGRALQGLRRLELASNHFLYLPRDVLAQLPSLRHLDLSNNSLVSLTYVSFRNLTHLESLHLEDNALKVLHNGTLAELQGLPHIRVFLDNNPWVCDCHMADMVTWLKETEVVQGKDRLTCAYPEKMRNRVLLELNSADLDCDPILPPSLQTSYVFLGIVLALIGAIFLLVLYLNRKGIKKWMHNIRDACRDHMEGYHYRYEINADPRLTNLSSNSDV", "assay": "flow cytometry on NCI-H226 cells, Alexa Fluor 647 anti-human IgG Fc secondary antibody, MFI", "procedure": "(§3) NCI-H226 cells, NCI-H2030 cells or HCC827 cells were plated in a 96-well plate at a density of 2×10⁵ cells/well. Serially diluted purified anti-5T4 antibody 32G1 or the positive control PF06263507 analog-SI (maximum concentration: 20 μg/mL, 2-fold dilutions, 12 gradients) were added to each well and were incubated at 4° C. for 30 minutes. Then, after one wash with PBS, the cells were incubated with the secondary antibody Alexa Fluor® 647 anti human IgG Fcγ (Jackson ImmunoResearch Laboratories, Inc., Cat #: 109-606-170) at 4° C. for 15 minutes before flow cytometry analysis.\n(§4) The cells were collected, and the mean fluorescence intensity (MFI) was determined."}, "[7]": {"target": "T3, 5T4 on NCI-H226 cells, NCI-H2030 cells …", "assay": "flow cytometry on NCI-H2030 cells, Alexa Fluor 647 anti-human IgG Fc secondary antibody, MFI", "procedure": "as §3, §4"}}}
{"binder": "B1", "values": [{"measurement": "Percentage of Positive Cells", "setting": "[1]", "value": 53.2, "unit": "%"}, {"measurement": "binding ratio", "setting": "[2]", "value": 0.89}, {"measurement": "binding ratio", "setting": "[3]", "value": 0.89}, {"measurement": "binding ratio", "setting": "[4]", "value": 0.01}, {"measurement": "binding ratio", "setting": "[5]", "value": -0.02}, {"measurement": "EC50 (read off the curve)", "setting": "[6]", "value": "~0.3", "unit": "µg/mL"}, {"measurement": "EC50 (read off the curve)", "setting": "[7]", "value": "~0.2", "unit": "µg/mL"}]}
